Laboratory results from PMC3375900.

Molecular target: Hrs (rat (endogenous in rat brain cytosol)) (UniProt Q9JJ50)
Assay: co-IP

Chain of UniProt Q9JJ50 (Q9JJ50 whole entry): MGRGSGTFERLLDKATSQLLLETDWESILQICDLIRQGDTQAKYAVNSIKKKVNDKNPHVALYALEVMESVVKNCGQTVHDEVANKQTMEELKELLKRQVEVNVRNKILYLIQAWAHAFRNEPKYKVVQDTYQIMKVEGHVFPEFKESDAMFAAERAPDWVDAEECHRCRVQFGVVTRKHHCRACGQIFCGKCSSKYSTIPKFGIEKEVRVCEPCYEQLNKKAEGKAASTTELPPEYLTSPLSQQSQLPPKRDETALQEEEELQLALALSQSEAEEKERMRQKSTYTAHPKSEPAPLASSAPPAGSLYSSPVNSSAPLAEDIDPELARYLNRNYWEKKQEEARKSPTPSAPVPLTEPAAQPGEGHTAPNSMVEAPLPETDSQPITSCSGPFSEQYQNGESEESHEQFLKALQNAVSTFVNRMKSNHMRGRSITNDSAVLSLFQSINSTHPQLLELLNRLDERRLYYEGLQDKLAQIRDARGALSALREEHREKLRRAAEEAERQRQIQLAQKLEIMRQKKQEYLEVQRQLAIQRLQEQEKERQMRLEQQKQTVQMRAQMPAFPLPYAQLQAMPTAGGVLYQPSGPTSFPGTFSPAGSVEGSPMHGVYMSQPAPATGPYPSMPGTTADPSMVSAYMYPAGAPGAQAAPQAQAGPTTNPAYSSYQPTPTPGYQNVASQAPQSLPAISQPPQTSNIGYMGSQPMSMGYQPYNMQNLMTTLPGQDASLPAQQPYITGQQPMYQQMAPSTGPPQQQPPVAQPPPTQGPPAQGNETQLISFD

In the case of “signal-transducing adaptor molecule (STAM) (from UniProt Q5XHY7 1-523) (natural protein)”, the percent of STAM remaining in the cytosol after immunodepletion of Hrs is reported as 16.5%.
